Test results as given in article PMC3291989.

Target: catalase (PktA) from Psychrobacter piscatorii T-3 (Psychrobacter piscatorii T-3)
Assay: SEC; gel filtration on two Protein PAK 300 columns, 0.1 M potassium phosphate buffer (pH 7.0), against mass standards; native mass compared with the subunit mass by SDS-PAGE

stoichiometry N: 4
Substance: catalase (PktA) from Psychrobacter piscatorii T-3 (enzyme)
